Consider four molecules from US20180030100A1.

Assay [1] deals with Plexin A4 receptor expressed on transfected COS-7 cells. The assay can be described thus: AP-conjugated ligand on COS-7 cells expressing Plexin A4, cell-bound AP activity with p-nitrophenyl phosphate, Scatchard plot (FIG. 4C).
Assay [2] has the same target. The assay can be described thus: cell-binding assay: AP-conjugated ligand on COS-7 cells expressing Plexin A4, p-nitrophenyl phosphate, absorbance at 405 nm [cont. 1). B].
Assay [3] has the same target. The assay can be described thus: AP-conjugated ligand binding curves on COS-7 cells expressing Plexin A4, estimated affinity (FIG. 4E).
In assay [4] the target is Nrp1 expressed on transfected COS cells. Nature of the assay: AP-conjugated ligand on COS cells expressing Nrp1, cell-bound AP activity with p-nitrophenyl phosphate, binding curve (FIG. 4D).
Assay [5] has as its target PlexinA4 of human umbilical vein endothelial cells (human) (UniProt Q9HCM2). The assay can be described thus: cell-based or functional assay.
Chain of UniProt Q9HCM2 (Q9HCM2 24-1894): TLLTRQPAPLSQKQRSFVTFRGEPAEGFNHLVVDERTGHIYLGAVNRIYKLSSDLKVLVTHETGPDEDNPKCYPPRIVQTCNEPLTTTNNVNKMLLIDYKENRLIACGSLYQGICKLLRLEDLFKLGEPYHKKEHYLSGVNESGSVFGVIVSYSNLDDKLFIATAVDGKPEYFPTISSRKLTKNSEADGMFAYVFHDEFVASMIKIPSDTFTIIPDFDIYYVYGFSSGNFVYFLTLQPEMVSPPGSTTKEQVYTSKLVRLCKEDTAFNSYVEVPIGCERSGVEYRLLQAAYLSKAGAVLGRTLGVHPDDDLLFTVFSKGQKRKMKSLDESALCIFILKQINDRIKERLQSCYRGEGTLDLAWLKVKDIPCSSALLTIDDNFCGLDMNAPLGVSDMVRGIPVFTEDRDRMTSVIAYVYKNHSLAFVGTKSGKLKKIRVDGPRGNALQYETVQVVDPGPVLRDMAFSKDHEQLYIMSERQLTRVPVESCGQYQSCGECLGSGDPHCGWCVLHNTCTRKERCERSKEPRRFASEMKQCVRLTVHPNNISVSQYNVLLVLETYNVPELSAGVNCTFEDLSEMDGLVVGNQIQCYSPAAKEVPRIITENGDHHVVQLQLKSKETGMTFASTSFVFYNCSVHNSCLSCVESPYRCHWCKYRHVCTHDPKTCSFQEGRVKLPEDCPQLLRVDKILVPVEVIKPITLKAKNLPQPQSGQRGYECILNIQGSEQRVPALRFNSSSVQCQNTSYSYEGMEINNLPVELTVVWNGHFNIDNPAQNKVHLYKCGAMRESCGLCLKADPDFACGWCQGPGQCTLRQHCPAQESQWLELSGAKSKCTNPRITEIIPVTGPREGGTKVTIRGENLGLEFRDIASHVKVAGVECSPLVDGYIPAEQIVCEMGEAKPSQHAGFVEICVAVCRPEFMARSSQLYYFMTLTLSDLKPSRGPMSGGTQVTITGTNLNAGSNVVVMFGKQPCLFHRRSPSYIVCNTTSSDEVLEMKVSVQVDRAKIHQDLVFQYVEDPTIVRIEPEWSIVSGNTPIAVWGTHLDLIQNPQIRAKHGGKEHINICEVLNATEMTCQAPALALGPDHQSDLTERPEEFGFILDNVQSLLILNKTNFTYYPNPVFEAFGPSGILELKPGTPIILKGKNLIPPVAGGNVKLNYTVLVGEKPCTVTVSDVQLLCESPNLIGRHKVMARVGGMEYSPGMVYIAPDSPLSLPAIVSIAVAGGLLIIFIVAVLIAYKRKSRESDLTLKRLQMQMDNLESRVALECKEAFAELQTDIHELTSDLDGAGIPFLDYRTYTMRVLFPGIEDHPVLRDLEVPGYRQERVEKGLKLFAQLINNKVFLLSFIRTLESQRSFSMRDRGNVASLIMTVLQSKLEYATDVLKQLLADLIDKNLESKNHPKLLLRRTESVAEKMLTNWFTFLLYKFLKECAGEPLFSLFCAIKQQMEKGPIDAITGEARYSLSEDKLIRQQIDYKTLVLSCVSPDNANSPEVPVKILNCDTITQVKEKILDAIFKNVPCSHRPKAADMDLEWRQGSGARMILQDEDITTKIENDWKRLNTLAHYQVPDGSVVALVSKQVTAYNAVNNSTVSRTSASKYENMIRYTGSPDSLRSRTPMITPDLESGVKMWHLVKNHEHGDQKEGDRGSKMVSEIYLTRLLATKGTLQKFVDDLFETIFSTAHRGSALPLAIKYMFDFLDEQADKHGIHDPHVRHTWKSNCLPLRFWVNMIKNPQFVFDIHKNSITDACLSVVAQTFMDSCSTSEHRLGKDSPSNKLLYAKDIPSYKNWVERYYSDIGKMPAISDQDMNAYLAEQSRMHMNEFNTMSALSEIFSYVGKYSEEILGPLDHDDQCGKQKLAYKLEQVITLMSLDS

Broadly, the Kd is the free concentration of one partner at which half of the binding sites on the other are occupied at equilibrium, for simple one-to-one binding. Usually EC50 (read off the curve) stands for the midpoint of the concentration-response curve. High values mean weaker potency, low ones greater potency. Take “alkaline phosphatase (AP)-conjugated mutant Sema3A A106K ΔIg-b (from UniProt P05187 23-511) (ligand)”: the equilibrium dissociation constant (Kd) in assay [1] and in assay [3] was 0.7 nM throughout. This molecule also displayed an EC50 (read off the curve) in assay [2] of 0.5 nM.
On to “alkaline phosphatase (AP)-conjugated mutant Sema3A ΔIg-b (from UniProt P05187 23-511) (ligand)”, for which the dissociation constant Kd in assay [3] was 200 nM.

B1: alkaline phosphatase (AP)-conjugated Sema3A WT (ligand, not shown: large carriers)
chain: NYANGKNNVPRLKLSYKEMLESNNVITFNGLANSSSYHTFLLDEERSRLYVGAKDHIFSFNLVNIKDFQKIVWPVSYTRRDECKWAGKDILKECANFIKVLEAYNQTHLYACGTGAFHPICTYIEVGHHPEDNIFKLQDSHFENGRGKSPYDPKLLTASLLIDGELYSGTAADFMGRDFAIFRTLGHHHPIRTEQHDSRWLNDPRFISAHLIPESDNPEDDKVYFFFRENAIDGEHSGKATHARIGQICKNDFGGHRSLVNKWTTFLKARLICSVPGPNGIDTHFDELQDVFLMNSKDPKNPIVYGVFTTSSNIFKGSAVCMYSMSDVRRVFLGPYAHRDGPNYQWVPYQGRVPYPRPGTCPSKTFGGFDSTKDLPDDVITFARSHPAMYNPVFPINNRPIMIKTDVNYQFTQIVVDRVDAEDGQYDVMFIGTDVGTVLKVVSVPKETWHDLEEVLLEEMTVFREPTTISAMELSTKQQQLYIGSTAGVAQLPLHRCDIYGKACAECCLARDPYCAWDGSSCSRYFPTAKRRTRRQDIRNGDPLTHCSDLQHHDNHHGPSLEERIIYGVENSSTFLECSPKSQRALVYWQFQRRNEDRKEEIRMGDHIIRTEQGLLLRSLQKKDSGNYLCHAVEHGFMQTLLKVTLEVIDTEHLEELLHKDDDGDGSKIKEMSSSMTPSQKVWYRDFMQLINHPNLNTMDEFCEQVWKRDRKQRRQRPGHSQGSSNKWKHMQESKKGRNRRTHEFERAPRSV
Regarding B1, the Kd in assay [3] was 7 nM; in assay [4], 1.1 nM.

B2: mouse Fc-tagged Sema3A A106K ΔIg-b (Fc fusion)
chain: NYANGKNNVPRLKLSYKEMLESNNVITFNGLANSSSYHTFLLDEERSRLYVGAKDHIFSFNLVNIKDFQKIVWPVSYTRRDECKWKGKDILKECANFIKVLEAYNQTHLYACGTGAFHPICTYIEVGHHPEDNIFKLQDSHFENGRGKSPYDPKLLTASLLIDGELYSGTAADFMGRDFAIFRTLGHHHPIRTEQHDSRWLNDPRFISAHLIPESDNPEDDKVYFFFRENAIDGEHSGKATHARIGQICKNDFGGHRSLVNKWTTFLKARLICSVPGPNGIDTHFDELQDVFLMNSKDPKNPIVYGVFTTSSNIFKGSAVCMYSMSDVRRVFLGPYAHRDGPNYQWVPYQGRVPYPRPGTCPSKTFGGFDSTKDLPDDVITFARSHPAMYNPVFPINNRPIMIKTDVNYQFTQIVVDRVDAEDGQYDVMFIGTDVGTVLKVVSVPKETWHDLEEVLLEEMTVFREPTTISAMELSTKQQQLYIGSTAGVAQLPLHRCDIYGKACAECCLARDPYCAWDGSSCSRYFPTGCKPCICTVPEVSSVFIFPPKPKDVLTITLTPKVTCVVVDISKDDPEVQFSWFVDDVEVHTAQTQPREEQFNSTFRSVSELPIMHQDWLNGKEFKCRVNSAAFPAPIEKTISKTKGRPKAPQVYTIPPPKEQMAKDKVSLTCMITDFFPEDITVEWQWNGQPAENYKNTQPIMDTDGSYFVYSKLNVQKSNWEAGNTFTCSVLHEGLHNHHTEKSLSHSPGK
As to B2, in assay [5], the Relative migration of ECs towards type I collagen at 3 h:45 m, 0.2 nM (xCELLigence) was 60 % of control; the Relative migration of ECs towards type I collagen at 3 h:45 m, 0.9 nM (xCELLigence) was 64 % of control; the Relative migration of ECs towards type I collagen at 3 h:45 m, 3.5 nM (xCELLigence) was 55 % of control; the activation of ERK 1/2 phosphorylation in ECs (Western blot, 15 minutes) amounted to 3.9 fold.
